From the DeepSol protein solubility set come the findings set out here.

The data set can be described thus: soluble on expression in E. coli; label from the status in PepcDB or PDB records.
In the case of “MSLRIVFKIGSNLLETDEGDIDLSFLSKLAEGIKKLHSFGDKVLIVSSGAVLSGAKKLGIKEKPKDLTLKQALASVGQSYLMHLYDTIFSNYGLKVGQVLLTKDVFSKEKEERFKNAKSTLEKLLELGVVPVINENDAVAVEELVFGDNDFLAVYVSFMVNADLLVIFSSAGGLKDDKDRIIPVVEDIEKVFKYVRGTGTSFGTGGMRSKLEATRLATTLNIPVIITSKEENILDLRNLKTKGTLFKPSKRKLRNALKVIATLEEPKGIIVVDRGAQEALKAGKSLLPAGVVSVQGNFKRGDVVSIQNEEGLIIGKGKVNFSSEEIEKIKGLKTSEVRKLLNTTKDEVIHRDNMVIFLEGHHHHHH”, the “soluble on expression in E. coli” value is on record as “not soluble”.

As to “ENILAGRAKAEKMRLSAERNRNQMEIYRSLQQGDECRKRQIHDYKNQLNCIRGLVDDNRTKEALRYIGQLTGSLNESIHQINTGHPVVNVLLNQKYQSAREQQISMTMTMNNLSELSLSEEDIVTLLANLLDNAIEACLKLHGDRRIQLKMVLEEEELFLSIRNPVEWEVKISGKTAAAAKEKSGEHGLGLGNVDAVIRKNRGRSTLQCQEGWFCFTAVILQPQR”, the “soluble on expression in E. coli” value is “not soluble”.

For “MAHHHHHHSLENKGTNLTPEQALDRLEELYEQSVNALREAIADYVDNGTLPDPHARLNGLFVYPSLSVSWDGATPNPPKTRAFGRFTHPGCYTTTVTRPALFRAYLLEQLNLVYHDYGAHIAVEASHHEIPYPYVIDGSALTLDRSMSAGLTRHFPTTELAQIGDETADGLFHPGEFYPLSHFDARRVDFSLARLRHYTGTPVEHFQPFVLFTNYTRYVDEFVRWGCSQILDPDSPYIALSCAGGIWITAETEAPEEAISDLAWKKHQMPAWHLVTADGQGITLVNIGVGPSNAKTICDHLAVLRPDVWLMIGHCGGLRESQAIGDYVLAHAYLRDDHVLDAVLPPDIPIPSIAEVQRALYDATKAVSGMPGEEVKQRLRTGTVVTTDDRNWELRYSASALRFNLSRAVAIDMESATIAAQGYRFRVPYGTLLCVSDKPLHGEIKLPGQANRFYEGAISEHLQIGIRAIDLLRAEGDRLHSRKEG”, the “soluble on expression in E. coli” value is “soluble”.

For “MFRMPIVTMERVDSFSAAHRLHSEKLSDAENKETFGKCNNSNGHGHNYVWKVKLRGEVDPTSGMVYDLAKLKKEMSLVLDTVDHRNLDKDVEFFKTTVSTSENVAIYMFEKLKSVMSNPSVLYKVTIEETPKNIFTYKGC”, the “soluble on expression in E. coli” value is reported as “not soluble”.

With “DAPAGGNAFEEMEKHAKEFQKTFSEQFNSLVNSKNTQDFNKALKDGSDSVLQQLSAFSSSLQGAISDANGKAKEALEQARQNVEKTAEELRKAHPDVEKEANAFKDKLQAAVQTTVQESQKLAKEVASNMEETNKKLAPKIKQAYDDFVKHAEEVQKKLHEAATKQ”, the “soluble on expression in E. coli” value is “soluble”.

Consider “MGSDKIHHHHHHMKEKVVLAYSGGLDTSVILKWLCEKGFDVIAYVANVGQKDDFVAIKEKALKTGASKVYVEDLRREFVTDYIFTALLGNAMYEGRYLLGTAIARPLIAKRQVEIAEKEGAQYVAHGATGKGNDQVRFELTYAALNPNLKVISPWKDPEFLAKFKGRTDLINYAMEKGIPIKVSKKRPYSEDENLMHISHEAGKLEDPAHIPDEDVFTWTVSPKDAPDEETLLEIHFENGIPVKVVNLKDGTEKTDPLELFEYLNEVGAKNGVGRLDMVENRFIGIKSRGVYETPGATILWIAHRDLEGITMDKEVMHLRDMLAPKFAELIYNGFWFSPEMEFLLAAFRKAQENVTGKVTVSIYKGNVMPVARYSPYSLYNPELSSMDVEGGFDATDSKGFINIHALRLKVHQLVKKGYQR”, for which the “soluble on expression in E. coli” value was “soluble”.

As to “MNFQKVCSLDELWEGDMTEVEVAGHVIVLVRPEGGEPRAFQGICPHQDIPLAEGKFDGRVLMCRAHQWTFDANTGKGINPGGARLAEYALKVEGDDILVAVEGVEPLFANC”, the “soluble on expression in E. coli” value was “soluble”.

For “MGSDKIHHHHHHMQREEWFHRAVIYQVDSSLFYDANGDGFGDLAGIRQKLHYIRSLGATVLWLTPFYLTPLQDDGYDISDHLQPDPRFGTIADVIELIARARELGLRVIVELVIQHTSAQHPWFQAARRDPRSPWRPYYLWADRPPENDDPPMFPGVEESVWRWDEQAGQYYRHMFYHHEPDLNLAHPPVIAEIENIITFWLQAGVSGFRLDAASHLVKQAGKGDETRGYPLLTHLRQVVQRLNPDAILLGEVDVAVEDYRHYFGQGDRLQMVLNFWLNKYLYLSLAQQRAAPVVKALQAMVTPPDGCCFVNWLRNHDELDLEGIGERNKRQVIRTFAPDKSMSVYQRGVRRRLAPMLDGDTRRIALAHAILLALPGVPVMRYGDEIGMGDDLSLPERYAVRTPMQWSAAANAGFSRAARDDLPVKPVASGRFRYQRINVETALRHPRSLLHRVRNMVLARTEYTEPGSLPFTLLTLKPDAVLGLLYRSESREVLMLANCSQQAVEVLLPPLAEGYWSPILEDKLYQDGLHGGKDARLALSGYGYRWFSRSLS”, the “soluble on expression in E. coli” value is “not soluble”.

Take “MAAYQVLIVGAGFSGAETAFWLAQKGVRVGLLTQSLDAVMMPFLPPKPPFPPGSLLERAYDPKDERVWAFHARAKYLLEGLRPLHLFQATATGLLLEGNRVVGVRTWEGPPARGEKVVLAVGSFLGARLFLGGVVEEAGRLSEASYPDLLEDLSRLGFRFVEREGEVPETPSTPGYRVRYLAFHPEEWEEKTFRLKRLEGLYAVGLCVREGDYARMSEEGKRLAEHLLHELG”: the “soluble on expression in E. coli” value is reported as “soluble”.

“MIRKWDTKDTAPLLALWLDSTIHAHPFISESYWRDSVAVVRDVYLPAASTWVWEQDGELKGFVSVLDSRFVGALFVAPGATRQGIGRALLDEVKQHYAWLSLEVYQKNESAVSFYHAQGFRIEDCAWQDDTQHPTWIMRWPADQMP”: the “soluble on expression in E. coli” value is “not soluble”.

“QDLTLSFNHIKSAVIYSAYPLTDKQVGELVQMLNKRFDSELKISVEIEPELIGGIKVEVGDQVLDLSVQGKLSALYTTMTN”: the “soluble on expression in E. coli” value is “not soluble”.

“MSELDQLRQEAEQLKSQIREARKSANDTTLATVASNLEPIGRIQMRTRRTLRGHLAKIYAMHWASDSRNLVSASQDGKLIVWDSYTTNKVHAIPLRSSWVMTCAYAPSGSFVACGGLDNICSIYSLKTREGNVRVSRELPGHTGYLSCCRFLDDNQIVTSSGDMTCALWDIETGQQCTAFTGHTGDVMSLSLSPDFRTFISGACDASAKLWDIRDGMCKQTFPGHESDINAVAFFPSGNAFATGSDDATCRLFDIRADQELAMYSHDNIICGITSVAFSKSGRLLFAGYDDFNCNVWDSMRQERAGVLAGHDNRVSCLGVTEDGMAVCTGSWDSFLKIWN”: the “soluble on expression in E. coli” value is recorded as “soluble”.

Regarding “MRVVIQRVKGAILSVRKENIGENEKELEIISEIKNGLICFLGIHKNDTWEDALYIIRKCLNLRLWNNDNKTWDKNVKDLNYELLIVSQFTLFGNTKKGNKPDFHLAKEPNEALIFYNKIIDEFKKQYNDDKIKIGKFGNYMNIDVTNDGPVTIYIDTHDINLNK”, the “soluble on expression in E. coli” value is listed as “soluble”.

With “MDIRQMNRTHLDHWRGLRKQLWPGHPDDAHLADGEEILQADHLASFIAMADGVAIGFADASIRHDYVNGCDSSPVVFLEGIFVLPSFRQRGVAKQLIAAVQRWGTNKGCREMASDTSPENTISQKVHQALGFEETERVIFYRKRC”, the “soluble on expression in E. coli” value is “not soluble”.

Turning to “MMDNNITETEMKVGHPPANKVGGRRVVNRKDRKNSDSNDNANSEGSDEVVREIIDYDLPAKMERSYPTEAVKKVHEKPMPAIQPVHINRDANSGVHRFQPRKQTH”, the “soluble on expression in E. coli” value was “soluble”.

In the case of “MGSDKIHHHHHHMTDDIYFAPLLPWQHGLWSQLTMRVLAQKQSLPHALLAAGMQGMGKRAFVWRLVAWLLCRARDEHPLGACGHCESCQWLRSGTHPSLQALPLISLPISADNAHTQEVASGTAKDKKTTKAASNGSLKIKVDEIRALQPFIYQGGQGMRICVLDHAEQMTIAAANALLKTLEEPQAQVHLFLISDAPAQLLPTIKSRVQQLSLQTIDPAIAVDYVTKVLGSTVHREALGTDVIEQLIQLANGAPLAAVALAQAPWYSKRALWLTTWQALRSGKRSSVAASDYWQIHLGIAEFIRLSELMVIDIRRVGLGFEAQQKDINFSTTLNGYQPIDNELEAFAHSLQQTKIALQQNVQEKFAYDKLMQELACL”, the “soluble on expression in E. coli” value is “not soluble”.

Regarding “MPDHLGDDMRKTKKDDTKEEEKNFQALDEGDIAVLKRYGQGPYAEQLKTLDADIENCLKKVNELSGVKESDTGLAPPALWDIAADKQAMQQEQPLQVARCTKIITSDKHDPRYLINVKQFAKFVVDLADSVAPTDIEEGMRVGVDRNKYQIHLPLPAKIDPTVTMMQVEEKPDVTYSDVGGCKDQIEKLREVVETPLLHPERYVNLGIEPPKGVLLYGPPGTGKTLCARAVANRTDACFIRVIGSELVQKYVGEGARMVRELFEMARTKKACLIFFDEIDAVGGARFDDGQGGDNEVQRTMLELINQLDGFDPRGNIKVLMATNRPDTLDPALMRPGRLDRKVEFALPDLAGRAHILKIHAKQMSVERDIRYDLLARLCPNSTGAEIRSVCTEAGMFAIRARRKVATEKDFLEAINKVVKGYAKFSATPRYLTHN”, the “soluble on expression in E. coli” value is “not soluble”.

Consider “MQFSTTPTLEGQSIVEYCGVVTGEAILGANIFRDFFAGIRDIVGGRSGAYEKELRKAREIAFQELGEQAKALGADAVVGIDIDYETVGKDGSMLMVSVSGTAVKTRR”, for which the “soluble on expression in E. coli” value was “not soluble”.

On to “MLRVVEVCWRESHMKVLAINSSPRMDKGNTALILNPFLEGMKEAGAEVELFYTKKLKISPCTGEFNCWLKTPGKCYQNDDMNILYPRIDAADVIVFATPVYVDGVTGQMKNFIDRMLPRVEPFVELRDGHCRHPVRGGPKALKFVLVSNCGFWEMDNFDSLLVFMKAFCKNASTEFAGALLRPHGEALSSMLEMGAPIDDVFEAAREVGRQLVKEGKMSQETLDIVSRELLPKEMYIQIANQTFRQCLESLDRLEHHHHHH”, for which the “soluble on expression in E. coli” value was “not soluble”.

On to “MGSDKIHHHHHHMSEQQCTELKVLDTVPFGQVSGDAQFYALRLEKPRWKSWKPGQFVMIRPQGWALDMLWARPFSICRVSSRDLVLFFQAVGRGTRRLADLKAGDTVVVWGPLGNSFAVEPETPTLMLAGGIGIAPFIGYAHTHPKPWNLWMEFGHRMPLGCYPFESINEKIMADNHQEECPDDLLRFIERLEKRIAEYAEQDGLVLACGPTPFLRTVQRFALQYGARCQLSLETRMACGVGGCLGCVTSTTEKHHLHHTQAGKAQVCNNGPVFWADQVDLDKA”, for which the “soluble on expression in E. coli” value is recorded as “not soluble”.

On to “GKNYVRSELKRLNHLCRDFRRDEVHAMDKLLFDQLCQIQLLLGTQAEVHIVSGYRSPATNKQLRSKSKGVAKKSYHMSGQAIDFRLDGVSLKKIREAAISLQAGGVGYYPKSQFIHIDTGPVRQWVGA”, for which the “soluble on expression in E. coli” value is “not soluble”.

Regarding “MAEPVQEELSVLAAIFCRPHEWEVLSRSETDGTVFRIHTKAEGFMDADIPLELVFHLPVNYPSCLPGISINSEQLTRAQCVTVKEKLLEQAESLLSEPMVHELVLWIQQNLRHILSQPETG”, the “soluble on expression in E. coli” value was “soluble”.

As to “MGSDKIHHHHHHMESYYAVLDAMAAAPGDGVFAIIIDVEGSAYQKEGTWMWIEASGKTTGLLSGGCFEEAVAAHALDVLSNRQATSISFDLRAEDDWSWGQGAGCNGLVRIWLEPVTSNTKPDWLALKRCLDRGEHVFMARSITDPREQPFFQSETGERFGGYSSPPRPEWLKELHGTPFFRGRNGVYETEEDTFFIQHFWPKPRLTIFGAGPDAPPLVSAAKAAGFSVTVSDWRPAFCQPSHVPDADAWVVGFPHETIPKLHLTERDFVVIMTHQFERDRELMRWLADIPLAYLGVLGPRRRTDRLFPSGTAPPFVRSPIGLPIGARSPHEIAISITAELINVLRGGPMETAR”, the “soluble on expression in E. coli” value is “not soluble”.
